± gives the half width of the 95% confidence interval.
Tests used:
[1] = folding stability dG unfold (combined trypsin and chymotrypsin); higher = more stable
How it was run: (§1)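 Designed mini-proteins (under 80 residues, no cysteine) in a PA-tagged cDNA display construct were digested with trypsin and chymotrypsin. Each protease was used at 11 concentrations (threefold dilutions) plus a no-protease condition, followed by sequencing. K50 was inferred by Bayesian fitting of sequencing counts, and unfolding free energy was derived against a sequence-predicted unfolded-state K50 and a shared folded-state K50, per protease or combined. Only designs with AlphaFold2 dimer inter-PAE above 15 were kept.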

[2] = folding stability dG unfold from chymotrypsin proteolysis; higher = more stable
How it was run: as §1

[3] = folding stability dG unfold from trypsin proteolysis; higher = more stable
How it was run: as §1

| Sequence | folding stability dG unfold [1] | folding stability dG unfold [2] | folding stability dG unfold [3] |
| --- | --- | --- | --- |
| SAGGSAGGSKIPPGEPVTLPIFFIIWDPENGRPYAMRMEITFDAPDGNITKMNEEVIPPGQPFSAGGSAGGS [r12_868_TrROS] | 1.54 ± 0.14 kcal/mol | 1.49 ± 0.17 kcal/mol | 1.5 ± 0.056 kcal/mol |
| SAGGSAGGSAGKKKKIFLIKIEVVKVKVEKRKKKDGKLEEKVEIEIKIEITEIPLPPELLSAGGSAGGSAGG [r11_24_TrROS_Hall] | 2.94 ± 0.19 kcal/mol | 3.02 ± 0.058 kcal/mol | 2.81 ± 0.12 kcal/mol |
| SAGGMTLDQLKHALRHKKMQIHEPNPNGWYVTFQNPDGKPPTFPVKSDDELRDILRDAPGFEVEVQPVSAGG [r13_600_TrROS] | 0.608 ± 0.2 kcal/mol | 0.84 ± 0.16 kcal/mol | -0.0886 ± 0.17 kcal/mol |
| SAGGSAGGSAGIDPPDIKLRVESELGPGPVRRLLVYLEGPGELVLVDVPADGSVSVSIFPSAGGSAGGSAGG [r11_55_TrMRF] | 2.9 ± 0.23 kcal/mol | 2.9 ± 0.28 kcal/mol | 2.85 ± 0.18 kcal/mol |
| SAGGNTIMIPMDPPQAREFAKNFIGEFLDQAEENPDRPIEIMVPGPEGRYITIRVDPKEGNLEIEVVPSAGG [r13_216_TrROS] | 0.125 ± 0.089 kcal/mol | -0.125 ± 0.17 kcal/mol | 0.231 ± 0.057 kcal/mol |
| SKVRELLREIARPHGMPITDVKVEPPPDGWHKVTFQIQFPMKDPNGQPMRRMTFPATITVRNGKITEITISA [r9_519_TrROS] | 1.72 ± 0.34 kcal/mol | 1.56 ± 0.12 kcal/mol | 1.54 ± 0.11 kcal/mol |
| SAGPAPGAPWEKVEIVAEAWVPTAGGKAVPVVLARAPDGSLLATFPDGTVRVVVPGAGPEVTVELPLASAGG [r19_199_TrMRF] | 1.62 ± 0.065 kcal/mol | 2.032 ± 0.016 kcal/mol | 0.115 ± 0.046 kcal/mol |
| SAGGKKKITITIEEVEELENGPLVYRVTIEVDGKTYEILIEADSLEEAKAAAEKLAEELNVEVTIEPVSAGG [r13_750_TrROS_Hall] | 3.86 ± 0.11 kcal/mol | 4.22 ± 0.048 kcal/mol | 2.55 ± 0.097 kcal/mol |
| SAGGSAGGSKKKLKLVIKLKKGEKAPTAEELKKKLEELGFEIKDIKVVEKDGELYVVLEIELKSAGGSAGGS [r12_1052_TrROS_Hall] | 3.24 ± 0.32 kcal/mol | 3.4 ± 0.14 kcal/mol | 2.67 ± 0.35 kcal/mol |
| SAGGSKVEIWIRFGDYWIRITVEPKPNGRKKVSVEVYNPNGEPMWSITFEIDPDGKIKDIDITPMPSAGGSA [r2_260_TrROS] | 5.01 ± 0.13 kcal/mol | 5.03 ± 0.14 kcal/mol | 4.53 ± 0.23 kcal/mol |
| SAGGSAGGSAKIWIILKDADEARDRIEELFGPGVRIEPVNIQRWDGKVYVMIEIEIPPNMTSAGGSAGGSAG [r3_87_TrROS] | 2.28 ± 0.054 kcal/mol | 2.4 ± 0.051 kcal/mol | 2.1 ± 0.055 kcal/mol |
| SAGMKIEIEAEYDPESGTVTLHIKEEPEPGEPVEVKFPIKFLKDKVEIEAETEEPLDPEEILKKIKEELSAG [r5_478_TrMRF] | 0.513 ± 0.2 kcal/mol | 0.835 ± 0.12 kcal/mol | -0.161 ± 0.14 kcal/mol |
| SAMVEVSTLPDGTTRVTITGKDPAAFEKELAELIEKIKKEGINATITKTREEPIPEEPELYRAELEIIVSAG [r14_119_JUSTAS] | 1.54 ± 0.25 kcal/mol | 1.48 ± 0.055 kcal/mol | 1.54 ± 0.062 kcal/mol |
| SAGGSAGGSAGGKSKTLRLYNKDTGVAVTVTLNEDGSLSVTVEPLPPPPPVEEKVVVKGSAGGSAGGSAGGS [r10_664_TrROS_Hall] | 1.03 ± 0.11 kcal/mol | 1.37 ± 0.13 kcal/mol | 0.527 ± 0.071 kcal/mol |
| SAKTVKVRIELTLTVVKVTLDPETGELKVEEVKTLTLEIELEMSEEDLEKARRALEEELKRLLEELGIPSAG [r14_308_TrROS_Hall] | 3.9 ± 0.37 kcal/mol | 3.78 ± 0.33 kcal/mol | 3.64 ± 0.29 kcal/mol |
| SAGGSAGGEELAKRLKELFPNAKIVEIKYDKKTKKVTIKVELEPGMSEEQRERLRKLLEELLKKSAGGSAGG [r6_97_TrROS_Hall] | 3.07 ± 0.15 kcal/mol | 2.85 ± 0.099 kcal/mol | 3.13 ± 0.17 kcal/mol |
| SMKPVKITEVTEDTITVTVTVYDKETNRLVKVTAEITFDKETKKLTIKVKVEVLPPLSEEQRKALEEALKSA [r9_1038_TrROS_Hall] | 2.74 ± 0.17 kcal/mol | 2.94 ± 0.07 kcal/mol | 1.98 ± 0.076 kcal/mol |
| SAGGSAGGAELKPVGNDPETGKTAVILLKKPDPTGLVLALEGLSPEELKKLAEIPGYEAVAVLASAGGSAGG [r6_185_TrMRF] | 0.787 ± 0.071 kcal/mol | 0.213 ± 0.23 kcal/mol | 0.996 ± 0.037 kcal/mol |
| STLLEEAKAQAEAYLKAAGLELAPGDVVTLTVPYPGPLTLEITVHPGEKKLEITATDASTPTTHTLTFDESA [r9_426_JUSTAS] | 1.03 ± 0.079 kcal/mol | 1.16 ± 0.074 kcal/mol | 0.831 ± 0.039 kcal/mol |
| SAGGSAGGSAGLPENVKLVKVTVTITYPNGEKETIPVVAPVPVLEKLLSLPGLPVSVTDESAGGSAGGSAGG [r17_313_TrMRF] | 0.333 ± 0.12 kcal/mol | 0.0595 ± 0.071 kcal/mol | 0.465 ± 0.028 kcal/mol |
| SAGGSAPGWYPITYEFEDNNKEIKIEVYYPKEDPMVGVDIEDPDGKVIFTIWFPADNAEKALKEILSAGGSA [r15_940_TrROS] | 1.39 ± 0.092 kcal/mol | 1.49 ± 0.071 kcal/mol | 1.23 ± 0.07 kcal/mol |

| Sequence | folding stability dG unfold [1] | folding stability dG unfold [2] | folding stability dG unfold [3] |
| --- | --- | --- | --- |
| SAVSTAQLPDDTTLTTITLPGDPSVTLTITTRKLPDGTPYLDATITLPDGTPVTVTFPAGTEAAVIAALASA [r9_310_JUSTAS] | 2.44 ± 0.086 kcal/mol | 2.46 ± 0.029 kcal/mol | 2.51 ± 0.097 kcal/mol |
| SAGGSAGGSAGGSKKYKAKIVSVEYDEETKEVTIKVKLENGEEKTITMSLEELKEIELPSAGGSAGGSAGGS [r4_51_TrROS_Hall] | 2.77 ± 0.079 kcal/mol | 3.15 ± 0.033 kcal/mol | 1.97 ± 0.081 kcal/mol |
| SAGGSAMTVTLIVGDKPITIPLTASLSDIKAALEEHPDVPVYIILPNGKRIEMKVSDLIKMMEKAGSAGGSA [r15_36_TrMRF] | 3.16 ± 0.1 kcal/mol | 3.35 ± 0.099 kcal/mol | 2.99 ± 0.058 kcal/mol |
| SAGGSAMFYLLKVELPDGKVLEIRIEATPEEKEEFVEKIKSHPEVKSVELEPISKEEAEELGFEEISAGGSA [r15_39_TrMRF] | 3.08 ± 0.12 kcal/mol | 3.274 ± 0.025 kcal/mol | 2.62 ± 0.12 kcal/mol |
| SKTVEITLTNEDGSTVTITFNEETGKIVIKVPPNVSVEQIKALLRKLLPPGAEVTITRTPNGYYEIEVKPSA [r9_933_TrROS_Hall] | 4.14 ± 0.098 kcal/mol | 4.41 ± 0.13 kcal/mol | 3.68 ± 0.13 kcal/mol |
| SAGGSAGGSPPPRFRVVVVFEDGTRREFDLTPEELVAFAEVVPDVVVEELPPGEVRITVRLPGSAGGSAGGS [r20_231_TrMRF] | 2.91 ± 0.1 kcal/mol | 3.11 ± 0.056 kcal/mol | 2.45 ± 0.081 kcal/mol |
| SAGGSAGGPEITIIIGNAGPIEVALKTAKEIKKILEEKGYPNVKIPILIIPFGSPEKLKEALGGSAGGSAGG [r6_476_TrMRF] | 0.383 ± 0.29 kcal/mol | -0.0243 ± 0.32 kcal/mol | 0.0997 ± 0.1 kcal/mol |
| SAGGSAGGSAGPSDDVKPYEVEAEFLIPGTGERVRVRAEVYTLDEEKGLALVRVEVEPVLSAGGSAGGSAGG [r11_1029_TrMRF] | 2.41 ± 0.18 kcal/mol | 2.88 ± 0.054 kcal/mol | 1.54 ± 0.07 kcal/mol |
| SSPEEDLEEIEITVTNPNDPRPSFVKVTRSPEGYEATFTLPDGKTVKIPPELGLEEIKKLPSSFTITILPSA [r9_781_JUSTAS] | 0.561 ± 0.064 kcal/mol | 0.83 ± 0.087 kcal/mol | 0.0376 ± 0.059 kcal/mol |
| SAGKLKPGDPVKIKIEIERDPGNGMVRVTYKIEFKDGMYVTMIIPPNGPIHVEIFNPDDGKEREETIPLSAG [r5_55_TrROS] | 2.46 ± 0.26 kcal/mol | 2.67 ± 0.096 kcal/mol | 2.15 ± 0.085 kcal/mol |
| SAGGSAGGGMSFTLTSEKKVPGVNVTLTTVTGPGVTITYDPATGKATVEFPDSVTTVPLSSITTSAGGSAGG [r6_512_JUSTAS] | 0.597 ± 0.099 kcal/mol | 0.359 ± 0.16 kcal/mol | 0.573 ± 0.024 kcal/mol |
| SAGGLNIKFEILEVYPSPNGMRMIIVRMTIEYPVPVYRRDPNGEWRPMPPGQEPVTIEIDFYIMVTPSAGGS [r16_693_TrROS] | 4.76 ± 0.18 kcal/mol | 5.11 ± 0.13 kcal/mol | 3.67 ± 0.11 kcal/mol |
| SAGGSAGGSMEVTYDEETGELTVRIEVDGKTLTLKFKSIEDLKAALEKLGIDVDDVKIVEIEPSAGGSAGGS [r12_834_TrROS_Hall] | 4.67 ± 0.14 kcal/mol | 4.75 ± 0.089 kcal/mol | 4.18 ± 0.3 kcal/mol |
| SAGATATPPAVRVATARLPLPFGTGTEVTVTTYSDGSATVTARFPDGVVATAFVSPDGSAVVTVAPAGGSAG [r5_168_TrMRF] | 2.41 ± 0.061 kcal/mol | 2.955 ± 0.024 kcal/mol | 0.992 ± 0.064 kcal/mol |
| SAGGSAGGSAGEPEIEIEVEERDGELVLRARVRDRETGEEYEVVVRVRPDGPIEITEIRPSAGGSAGGSAGG [r17_113_TrROS_Hall] | 2.72 ± 0.13 kcal/mol | 2.55 ± 0.13 kcal/mol | 3.11 ± 0.13 kcal/mol |
| SAGGSAGGSAGEFELLSVEYFPPIGRVRVAYRRGDLVLVVDFFNPENPEIRPVSLSDELGSAGGSAGGSAGG [r17_145_TrMRF] | 2.59 ± 0.18 kcal/mol | 2.48 ± 0.057 kcal/mol | 2.64 ± 0.067 kcal/mol |
| SAGAVRPDEPVTVTVTVEVDPETGFVRVTFDAAAPDGITVEALIPPDGPVLVRVRRPGSRETVEVVLPASAG [r5_55_TrMRF] | 3.06 ± 0.072 kcal/mol | 3.31 ± 0.045 kcal/mol | 2.57 ± 0.13 kcal/mol |
| SGMERTPLTPTETVTLTIPPGSLTITPTASPGPLTVTVTVPGSGTPTVVELPVEAPDLDAALAAVVAALQSA [r9_982_JUSTAS] | 1.12 ± 0.056 kcal/mol | 1.39 ± 0.078 kcal/mol | 0.787 ± 0.04 kcal/mol |
| SAGGGPEEIRRAAEALAAELAAELGLEVVEVEVEVREDGTVTVRITVRLPDGSKLEITLTLPAGAPLSAGGS [r8_175_TrROS_Hall] | 1.65 ± 0.073 kcal/mol | 1.15 ± 0.038 kcal/mol | 2.03 ± 0.05 kcal/mol |
| SAGGSAGGKLKKFKIKEIKIEKNKETNTYTVTITLENGEKLTITAKSKEDAEKALRKLKEAGLLSAGGSAGG [r6_65_TrROS_Hall] | 3.02 ± 0.2 kcal/mol | 3.39 ± 0.098 kcal/mol | 2.81 ± 0.086 kcal/mol |
| SAGGSEEKVFEFEVVEVTSVEVKEDGTVTIEVTVRLENGLLLTVRVTFDLATNEVTIEVELRPLPESAGGSA [r2_321_TrROS_Hall] | 4.41 ± 0.2 kcal/mol | 4.49 ± 0.19 kcal/mol | 3.38 ± 0.35 kcal/mol |
